The Human Domainome abundance scans (Beltran et al. 2025)
± gives the uncertainty stated by the source.

B1: Ankyrin repeat and SOCS box protein 14, residues 532 to 572; numbered along this chain, A6NK59 (parent)
chain: RSLKHLCRLKIRKCMGRLHLRCPVFMSFLPLPNRLKAYVLY

Variants of: B1
Test: abundance fitness (aPCA) (normalised: wild type 0, dead -1); higher = more abundant; growth selection in yeast, the domain comes from the species named
Conditions: Homo sapiens

Variant	abundance fitness
RSLKHLCRLKPRKCMGRLHLRCPVFMSFLPLPNRLKAYVLY	-0.675 ± 0.065
RSLKHLCRLKQRKCMGRLHLRCPVFMSFLPLPNRLKAYVLY	-0.992 ± 0.13
RSLKHLCRLKRRKCMGRLHLRCPVFMSFLPLPNRLKAYVLY	-0.956 ± 0.081
RSLKHLCRLKTRKCMGRLHLRCPVFMSFLPLPNRLKAYVLY	-0.722 ± 0.18
RSLKHLCRLKVRKCMGRLHLRCPVFMSFLPLPNRLKAYVLY	-0.17 ± 0.063
RSLKHLCRLKWRKCMGRLHLRCPVFMSFLPLPNRLKAYVLY	0.023 ± 0.056
RSLKHLCRLKIAKCMGRLHLRCPVFMSFLPLPNRLKAYVLY	-0.261 ± 0.06
RSLKHLCRLKICKCMGRLHLRCPVFMSFLPLPNRLKAYVLY	-0.249 ± 0.099
RSLKHLCRLKIDKCMGRLHLRCPVFMSFLPLPNRLKAYVLY	-0.03 ± 0.17
RSLKHLCRLKIGKCMGRLHLRCPVFMSFLPLPNRLKAYVLY	-0.262 ± 0.042
RSLKHLCRLKIHKCMGRLHLRCPVFMSFLPLPNRLKAYVLY	-0.662 ± 0.47
RSLKHLCRLKIIKCMGRLHLRCPVFMSFLPLPNRLKAYVLY	0.099 ± 0.32
RSLKHLCRLKIKKCMGRLHLRCPVFMSFLPLPNRLKAYVLY	0.129 ± 0.065
RSLKHLCRLKILKCMGRLHLRCPVFMSFLPLPNRLKAYVLY	-0.063 ± 0.072
RSLKHLCRLKIMKCMGRLHLRCPVFMSFLPLPNRLKAYVLY	0.083 ± 0.072
RSLKHLCRLKIPKCMGRLHLRCPVFMSFLPLPNRLKAYVLY	-0.235 ± 0.079
RSLKHLCRLKIQKCMGRLHLRCPVFMSFLPLPNRLKAYVLY	-0.168 ± 0.065
RSLKHLCRLKISKCMGRLHLRCPVFMSFLPLPNRLKAYVLY	-0.178 ± 0.1
RSLKHLCRLKITKCMGRLHLRCPVFMSFLPLPNRLKAYVLY	-0.224 ± 0.085
RSLKHLCRLKIVKCMGRLHLRCPVFMSFLPLPNRLKAYVLY	-0.071 ± 0.075
RSLKHLCRLKIWKCMGRLHLRCPVFMSFLPLPNRLKAYVLY	-0.201 ± 0.068

Variant	abundance fitness
RSLKHLCRLKIRACMGRLHLRCPVFMSFLPLPNRLKAYVLY	0.009 ± 0.048
RSLKHLCRLKIRCCMGRLHLRCPVFMSFLPLPNRLKAYVLY	-0.192 ± 0.096
RSLKHLCRLKIRECMGRLHLRCPVFMSFLPLPNRLKAYVLY	0.201 ± 0.055
RSLKHLCRLKIRGCMGRLHLRCPVFMSFLPLPNRLKAYVLY	0.045 ± 0.044
RSLKHLCRLKIRHCMGRLHLRCPVFMSFLPLPNRLKAYVLY	-0.081 ± 0.43
RSLKHLCRLKIRICMGRLHLRCPVFMSFLPLPNRLKAYVLY	-0.091 ± 0.09
RSLKHLCRLKIRLCMGRLHLRCPVFMSFLPLPNRLKAYVLY	-0.241 ± 0.048
RSLKHLCRLKIRMCMGRLHLRCPVFMSFLPLPNRLKAYVLY	-0.09 ± 0.1
RSLKHLCRLKIRPCMGRLHLRCPVFMSFLPLPNRLKAYVLY	-0.434 ± 0.099
RSLKHLCRLKIRQCMGRLHLRCPVFMSFLPLPNRLKAYVLY	0.086 ± 0.088
RSLKHLCRLKIRRCMGRLHLRCPVFMSFLPLPNRLKAYVLY	0.048 ± 0.058
RSLKHLCRLKIRSCMGRLHLRCPVFMSFLPLPNRLKAYVLY	-0.031 ± 0.058
RSLKHLCRLKIRTCMGRLHLRCPVFMSFLPLPNRLKAYVLY	-0.161 ± 0.062
RSLKHLCRLKIRVCMGRLHLRCPVFMSFLPLPNRLKAYVLY	-0.236 ± 0.05
RSLKHLCRLKIRWCMGRLHLRCPVFMSFLPLPNRLKAYVLY	-0.166 ± 0.059
RSLKHLCRLKIRYCMGRLHLRCPVFMSFLPLPNRLKAYVLY	-0.179 ± 0.2
RSLKHLCRLKIRKAMGRLHLRCPVFMSFLPLPNRLKAYVLY	0.273 ± 0.046
RSLKHLCRLKIRKDMGRLHLRCPVFMSFLPLPNRLKAYVLY	0.014 ± 0.12
RSLKHLCRLKIRKEMGRLHLRCPVFMSFLPLPNRLKAYVLY	-0.024 ± 0.076
RSLKHLCRLKIRKGMGRLHLRCPVFMSFLPLPNRLKAYVLY	-0.076 ± 0.043
RSLKHLCRLKIRKHMGRLHLRCPVFMSFLPLPNRLKAYVLY	-0.373 ± 0.13

Variant	abundance fitness
RSLKHLCRLKIRKKMGRLHLRCPVFMSFLPLPNRLKAYVLY	-0.165 ± 0.093
RSLKHLCRLKIRKLMGRLHLRCPVFMSFLPLPNRLKAYVLY	0.431 ± 0.066
RSLKHLCRLKIRKMMGRLHLRCPVFMSFLPLPNRLKAYVLY	0.308 ± 0.067
RSLKHLCRLKIRKPMGRLHLRCPVFMSFLPLPNRLKAYVLY	-0.3 ± 0.07
RSLKHLCRLKIRKRMGRLHLRCPVFMSFLPLPNRLKAYVLY	-0.264 ± 0.047
RSLKHLCRLKIRKSMGRLHLRCPVFMSFLPLPNRLKAYVLY	-0.155 ± 0.084
RSLKHLCRLKIRKVMGRLHLRCPVFMSFLPLPNRLKAYVLY	0.376 ± 0.057
RSLKHLCRLKIRKWMGRLHLRCPVFMSFLPLPNRLKAYVLY	0.462 ± 0.048
RSLKHLCRLKIRKCAGRLHLRCPVFMSFLPLPNRLKAYVLY	-0.204 ± 0.048
RSLKHLCRLKIRKCCGRLHLRCPVFMSFLPLPNRLKAYVLY	-0.319 ± 0.091
RSLKHLCRLKIRKCDGRLHLRCPVFMSFLPLPNRLKAYVLY	-1 ± 0.15
RSLKHLCRLKIRKCEGRLHLRCPVFMSFLPLPNRLKAYVLY	-0.738 ± 0.088
RSLKHLCRLKIRKCFGRLHLRCPVFMSFLPLPNRLKAYVLY	-0.16 ± 0.23
RSLKHLCRLKIRKCGGRLHLRCPVFMSFLPLPNRLKAYVLY	-0.367 ± 0.053
RSLKHLCRLKIRKCHGRLHLRCPVFMSFLPLPNRLKAYVLY	-0.794 ± 0.17
RSLKHLCRLKIRKCLGRLHLRCPVFMSFLPLPNRLKAYVLY	0.202 ± 0.055
RSLKHLCRLKIRKCPGRLHLRCPVFMSFLPLPNRLKAYVLY	-0.671 ± 0.1
RSLKHLCRLKIRKCQGRLHLRCPVFMSFLPLPNRLKAYVLY	-0.576 ± 0.077
RSLKHLCRLKIRKCRGRLHLRCPVFMSFLPLPNRLKAYVLY	-0.6 ± 0.082
RSLKHLCRLKIRKCSGRLHLRCPVFMSFLPLPNRLKAYVLY	-0.612 ± 0.13
